Laboratory results: the supplement of paper PMC9732359
± gives the uncertainty stated by the source.

Assay: protein stability index of a GFP-peptide fusion (yeast GPS) (PSI 1-4); higher = more stable; sorted into four equal gates, so the index is relative within each strain
Procedure, shortened: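 Yeast carrying a pooled library were grown to mid-log phase in leucine-free medium. Each library plasmid expresses Cherry and has a tiled 17-residue yeast protein peptide fused downstream of GFP. Cells were sorted into four equal gates by GFP/Cherry ratio, and plasmids from each gate were PCR-amplified, Illumina-sequenced and assigned to strains by barcode. Summing, across gates, the read frequency times the gate number gave each peptide's protein stability index.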

Row | Sequence | protein stability index (doa10∆) | protein stability index (pdr5∆) | protein stability index (san1∆) | protein stability index (ubr1∆)
1 | PPSVTLQDWQREDEFGS [YDL088C/ASM4] | 3.1 ± 0.11 | 3.31 ± 0.074 | 2.99 ± 0.065 | 3.24 ± 0.054
2 | PQAILAKNSIIDSSNLP [SWI1] | 2.02 ± 0.061 | 2.42 ± 0.061 | 2.32 ± 0.05 | 2.36 ± 0.04
3 | PQGRQSTTFADCPVVPA [RPC40] | 2.89 ± 0.067 | 2.92 ± 0.078 | 2.49 ± 0.1 | 2.87 ± 0.059
4 | PQGSTTNGGLFGSGTQN [YGR119C/NUP57] | 3.12 ± 0.073 | 3.27 ± 0.058 | 3.3 ± 0.042 | 3.015 ± 0.029
5 | PQRLQRKRHQRALKVRN [RPS6A] | 2.96 ± 0.1 | 2.9 ± 0.069 | 2.64 ± 0.096 | 2.87 ± 0.046
6 | PRFNRENKVSPADAAKK [RPS26A] | 3.45 ± 0.18 | 2.73 ± 0.17 | 2.98 ± 0.075 | 2.89 ± 0.12
7 | PRGTAKLIIHRKNDNAN [SMC3] | 1.68 ± 0.29 | 2.34 ± 0.18 | – | 1.95 ± 0.087
8 | PRSPGRSPTRRLELLQL [SMC4] | 1.41 ± 0.27 | 2.12 ± 0.15 | 1.99 ± 0.25 | 1.7 ± 0.13
9 | PRVIEPVYTAQWSATWI [PRP8] | 1.8 ± 0.072 | 2.17 ± 0.054 | 2.08 ± 0.07 | 2.13 ± 0.046
10 | PSENLLNIRIQTYGETT [RPC19] | 1.85 ± 0.27 | 1.18 ± 0.13 | – | 1.33 ± 0.26
11 | PSGAKKVISSDARGVIG [RPL2A] | 2.88 ± 0.072 | 3.13 ± 0.066 | 2.9 ± 0.076 | 3.04 ± 0.077
12 | PSILEDSLENNEGVPSP [FAS1] | 3.29 ± 0.23 | 2.79 ± 0.22 | 3.22 ± 0.17 | 3.14 ± 0.2
13 | PSIVFIDEIDAIGTKRY [RPT2] | – | 2.28 ± 0.14 | 2.14 ± 0.17 | 2.92 ± 0.19
14 | PSLLLQKDQDGRIPLHW [NAS6] | 3.28 ± 0.28 | 3.38 ± 0.21 | – | –
15 | PSLRKLIESGIGTHHAG [BRR2] | 3.16 ± 0.19 | 3.38 ± 0.28 | 3.11 ± 0.2 | 3.64 ± 0.13
16 | PSQGVHYKVPTDTSTTA [MED6] | 2.34 ± 0.043 | 2.84 ± 0.046 | 2.37 ± 0.06 | 2.76 ± 0.037
17 | PSSEKPNIRTMSGTTKR [SSN2] | – | 2.45 ± 0.27 | – | –
18 | PSSQSQNDTPMFKLGNF [YLR018C/POM34] | 2.54 ± 0.044 | 2.8 ± 0.046 | 2.79 ± 0.036 | 2.6 ± 0.028
19 | PSTGFKFSLPFEQKGSQ [YLR335W/NUP2] | 2.99 ± 0.11 | 2.94 ± 0.088 | 3.07 ± 0.087 | 2.96 ± 0.096
20 | PSYTHVLISKLSCEKIT [RRI1] | 2.18 ± 0.04 | 1.99 ± 0.043 | 2.12 ± 0.047 | 1.98 ± 0.035
21 | PTDDKTLKPTFSFTEPA [YOR098C/NUP1] | 3.14 ± 0.088 | 2.65 ± 0.089 | 2.91 ± 0.072 | 3.07 ± 0.042
22 | PTHYKIPAWFLNRQNDI [RPS18A] | 2.12 ± 0.065 | 2.19 ± 0.062 | 1.8 ± 0.071 | 1.75 ± 0.046
23 | PTIRSNAVLGLGDMAVC [YCS4] | 1.61 ± 0.088 | 1.64 ± 0.069 | 1.67 ± 0.13 | 1.71 ± 0.099
24 | PTQTVAELDLMSGILHC [RPN6] | 2.8 ± 0.06 | 3.07 ± 0.054 | 2.95 ± 0.047 | 3.1 ± 0.051
25 | PTSDEPVPESAGKADTS [SRB4] | 2.86 ± 0.085 | 3.07 ± 0.092 | 2.88 ± 0.065 | 3.07 ± 0.045
26 | PTTNEPAKPALSFGTAT [YJL041W/NSP1] | 2.97 ± 0.074 | 3.08 ± 0.063 | 2.96 ± 0.053 | 3.12 ± 0.042

Row | Sequence | protein stability index (doa10∆) | protein stability index (pdr5∆) | protein stability index (san1∆) | protein stability index (ubr1∆)
27 | PVGRELDPISLILIPGE [RPN13] | 2.65 ± 0.098 | 2.56 ± 0.05 | 3.13 ± 0.062 | 3.23 ± 0.098
28 | PVIGVFQKFLTGHPKGA [FAS2] | 3.34 ± 0.19 | 2.79 ± 0.16 | 2.57 ± 0.2 | 3.52 ± 0.24
29 | PVLKKKAAFLGSEVRLR [COR1] | 2.91 ± 0.074 | 3.16 ± 0.071 | 2.97 ± 0.07 | 3.3 ± 0.078
30 | PVNSADGKEDVEKGTPL [SME1] | 3.45 ± 0.12 | 3.25 ± 0.21 | 3.52 ± 0.058 | –
31 | PVQIVKRITQITIEPGV [RPS20] | 1.74 ± 0.15 | 1.79 ± 0.25 | 1.35 ± 0.21 | 1.65 ± 0.12
32 | PVQSKFGRKKRKGGPAT [RPT2] | 3.47 ± 0.23 | 3.11 ± 0.14 | 2.99 ± 0.095 | 3.22 ± 0.16
33 | PWCVKPEYLAMYGLTME [ITC1] | 2.27 ± 0.065 | 3.03 ± 0.071 | 2.79 ± 0.081 | 2.07 ± 0.073
34 | PWYNNPVSCIIQNDEEY [PRP8] | 1.88 ± 0.13 | 2.05 ± 0.094 | 2.43 ± 0.13 | 1.05 ± 0.12
35 | PYAIIKGKARLGTLVNQ [RPL8B] | 1.83 ± 0.058 | 1.99 ± 0.06 | 1.28 ± 0.063 | 2 ± 0.053
36 | PYLLETYANVLIPCKYL [RPN7] | 1.32 ± 0.067 | 1.43 ± 0.063 | 1.19 ± 0.099 | 1.18 ± 0.062
37 | PYSKNAVEQLAGCKIDN [YDL088C/ASM4] | 2.58 ± 0.089 | 2.6 ± 0.089 | 2.41 ± 0.092 | 2.56 ± 0.047
38 | QAAGGLSIRLTNQLKSL [RPN8] | 2.75 ± 0.085 | 2.57 ± 0.088 | 2.29 ± 0.11 | 2.19 ± 0.06
39 | QALIHGLNRHYYSLNID [RPN11] | 1.98 ± 0.15 | 2.4 ± 0.1 | 2.44 ± 0.068 | 2.42 ± 0.068
40 | QANPTEESISKFPDMGS [RPB5] | 3.23 ± 0.082 | 3.26 ± 0.076 | 3.04 ± 0.074 | 3.26 ± 0.087
41 | QAYEEIISSNENALIEL [YIL149C/MLP2] | 3.18 ± 0.064 | 3.07 ± 0.061 | 2.92 ± 0.071 | 3.23 ± 0.042
42 | QAYQFLNTFGSKICLSH [ITC1] | 2.06 ± 0.076 | 1.33 ± 0.049 | 1.63 ± 0.082 | 1.42 ± 0.054
43 | QDDDFPLDDAGTIGWDL [MCD1] | 3.04 ± 0.08 | 3.25 ± 0.081 | 3.36 ± 0.06 | 3.06 ± 0.068
44 | QDVLQMLGRAGRPRYDT [BRR2] | 3.41 ± 0.21 | 2.56 ± 0.23 | 3.43 ± 0.14 | 2.81 ± 0.28
45 | QEAIQQNRRLAFEELEG [PRP8] | 2.24 ± 0.12 | 2.62 ± 0.28 | 2.74 ± 0.24 | 2.75 ± 0.12
46 | QEDFEVVEEFTPVVLAT [RPS5] | 3.1 ± 0.091 | 2.45 ± 0.059 | 2.3 ± 0.046 | 2.31 ± 0.042
47 | QEGKISSVYRLKFAVQV [RPL26A] | 3.09 ± 0.089 | 3.25 ± 0.11 | 3.1 ± 0.095 | 3.76 ± 0.12
48 | QEGLITTTMLQLFSTFD [SSN2] | 2.58 ± 0.051 | 2.57 ± 0.072 | 2.55 ± 0.056 | 2.61 ± 0.034
49 | QELQIKRDVLDDLYRKL [CSE2] | 2.27 ± 0.14 | 2.19 ± 0.15 | – | –
50 | QELRKKVNPNIMNMIEN [SMC2] | 2.45 ± 0.13 | 2.72 ± 0.11 | 2.37 ± 0.13 | 2.47 ± 0.062
51 | QESLLSRTFDKYSKLVD [SRP72] | 2.83 ± 0.059 | 2.9 ± 0.068 | 2.99 ± 0.055 | 2.7 ± 0.04
52 | QETQHGNITRGLAVGLA [RPN2] | 3.08 ± 0.074 | 2.55 ± 0.096 | 2.73 ± 0.062 | 2.88 ± 0.04
